According to patent US7115260B2, “Interleukin-1β converting enzyme like apoptotic protease-6” (Human Genome Sciences, Inc., priority 1996, dated 2006):
Peptide text beside a SMILES is read from it. * marks the point of attachment. Cbz = O=C(OCc1ccccc1)*; CH2F = FC*

T1: ICE LAP-6 (Homo sapiens, UniProt P55211, A28V/A96G/Q221R)
T1 construct: transiently transfected with an expression vector encoding the full-length ICE LAP-6 protein (ICE LAP-6-flag); expressed in transfected cells; host or cells: MCF7 breast carcinoma cells, pcDNA3 vector
T1 sequence (P55211 1-416 A28V/A96G/Q221R): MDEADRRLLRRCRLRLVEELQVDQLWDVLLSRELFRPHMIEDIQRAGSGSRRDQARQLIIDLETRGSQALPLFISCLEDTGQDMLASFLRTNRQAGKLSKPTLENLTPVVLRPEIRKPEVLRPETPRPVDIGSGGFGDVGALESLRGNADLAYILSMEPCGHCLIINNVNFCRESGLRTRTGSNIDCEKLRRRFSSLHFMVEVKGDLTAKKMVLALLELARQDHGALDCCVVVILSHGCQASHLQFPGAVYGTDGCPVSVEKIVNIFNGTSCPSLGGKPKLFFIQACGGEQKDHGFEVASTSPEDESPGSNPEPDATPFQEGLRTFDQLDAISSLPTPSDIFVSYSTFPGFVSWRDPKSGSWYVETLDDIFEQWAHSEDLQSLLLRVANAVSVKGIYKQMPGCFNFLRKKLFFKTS

T2: pro-ICE LAP-6 (Homo sapiens, UniProt P55211, A28V/A96G/Q221R)
T2 construct: made in house; host or cells: cell-free in vitro transcription/translation, TNT kit (Promega)
T2 sequence (P55211 1-416 A28V/A96G/Q221R): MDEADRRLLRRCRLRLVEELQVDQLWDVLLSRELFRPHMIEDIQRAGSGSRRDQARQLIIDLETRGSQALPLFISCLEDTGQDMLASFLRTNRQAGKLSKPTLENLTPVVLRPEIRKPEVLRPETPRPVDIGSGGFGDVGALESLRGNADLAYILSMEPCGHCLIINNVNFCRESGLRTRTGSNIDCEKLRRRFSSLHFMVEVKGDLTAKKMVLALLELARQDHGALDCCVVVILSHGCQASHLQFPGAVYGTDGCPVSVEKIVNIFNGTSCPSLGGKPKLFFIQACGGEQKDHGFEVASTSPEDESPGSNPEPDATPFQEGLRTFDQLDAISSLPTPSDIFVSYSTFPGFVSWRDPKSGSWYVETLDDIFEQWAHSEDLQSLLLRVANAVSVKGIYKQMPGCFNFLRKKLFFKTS

T3: pro-Yama (Homo sapiens, UniProt P42574)
T3 construct: His6; made in house; host or cells: cell-free in vitro transcription/translation, TNT kit (Promega)
T3 sequence (P42574 1-277): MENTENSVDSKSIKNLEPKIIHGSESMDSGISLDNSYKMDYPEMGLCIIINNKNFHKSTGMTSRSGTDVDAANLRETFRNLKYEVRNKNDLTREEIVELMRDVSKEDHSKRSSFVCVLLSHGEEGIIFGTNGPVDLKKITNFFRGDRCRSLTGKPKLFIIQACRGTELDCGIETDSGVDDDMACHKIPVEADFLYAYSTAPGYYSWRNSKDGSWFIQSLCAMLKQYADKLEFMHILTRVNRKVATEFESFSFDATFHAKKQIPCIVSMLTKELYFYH


Tests used:
ICE LAP-6 = biological target: T1, ICE LAP-6; experiment: Inhibition of ICE LAP-6 induced apoptosis in transfected MCF7 cells; type: cell-based; conditions: MCF7 cells transfected with ICE LAP-6-flag
Method: (§1) MCF7 breast carcinoma cells were transiently transfected as described previously (Chinnaiyan, A. M., et al (1995) Cell 81, 505–512). Briefly, 2.5×10^5 MCF7 cells were transfected with 0.25 μg of the reporter plasmid pCMV β-galactosidase plus 1 μg of test plasmid in 6-well tissue culture dishes using lipofectamine as per manufacturer's instructions. The transfection was carried out in 1 ml of Opti-MEM Minimal Media (GMBCO-BRL) and after 5 hours, 1 ml of serum-containing growth media was added. Two days later, the cells were fixed with 0.5% glutaraldehyde and stained with X-gal for 4 hours. Cells were visualized by phase-contrast microscopy. At least 300 β-galactosidase-positive cells were counted for each transfection (n=3) and identified as apoptotic or nonapoptotic based on morphological alterations typical of adherent cells undergoing apoptosis including becoming rounded, condensed, and detaching from the dish (Cohen, J. J. (1993) Immunology Today 14, 126–130). […] Samples were analyzed by immunoblotting with anti-PARP monoclonal antibody C-2-10 as described previously Tewari, M., et al. (1995) Cell 81, 801–809).
(§2) To study the functional role of ICE LAP-6, MCF7 breast carcinoma cells were transiently transfected with an expression vector encoding the full-length ICE LAP-6 protein (ICE LAP-6-flag) and subsequently assessed for apoptotic features. […]

pro-ICE LAP-6 = biological target: T2, pro-ICE LAP-6; experiment: Proteolytic activation of in vitro-translated pro-ICE LAP-6 by granzyme B; type: biochemical; conditions: 20 pmole granzyme B, 4 hours at 37° C., SDS-PAGE
pro-Yama = biological target: T3, pro-Yama; experiment: Proteolytic activation of in vitro-translated pro-Yama by granzyme B; type: biochemical; conditions: purified granzyme B
PARP = PARP cleavage by granzyme B-processed protease (anti-PARP immunoblot); type: biochemical; conditions: after granzyme B processing, anti-GraB added, 2 hours, 37° C.
Method: as §1, with “801–809). […]” for “801–809).”

[1] = tested on: MCF7 breast carcinoma cells; experiment: Apoptosis assay in transiently transfected MCF7 cells; type: cell-based; conditions: transient transfection of expression vector, morphology of β-galactosidase-positive cells, two days
Method: as §1, §2

Molecule | ability to cleave PARP (PARP) | induction of apoptosis / cell death on overexpression [1] | also measured
COC(=O)C[C@H](NC(=O)[C@H](C)NC(=O)[C@@H](NC(=O)OCc1ccccc1)C(C)C)C(=O)CF [z-VAD fmk] (Cbz-Val-Ala-Asp(OMe)-CH2F) |  |  | inhibition of ICE LAP-6 induced apoptosis (ICE LAP-6): inhibited
granzyme B: secreted serine protease, effector of cytotoxic T cell-mediated apoptosis |  |  | proteolytic processing of pro-ICE LAP-6 (pro-ICE LAP-6): proteolytically processed into 3 fragments; activation of Yama in vitro (pro-Yama): directly activates
ICE LAP-6: novel human member of the ICE/ced-3 family of cysteine proteases, active site QACGG, predicted 45.8 kD (protein) MDEADRRLLRRCRLRLVEELQVDQLWDVLLSRELFRPHMIEDIQRAGSGSRRDQARQLIIDLETRGSQALPLFISCLEDTGQDMLASFLRTNRQAGKLSKPTLENLTPVVLRPEIRKPEVLRPETPRPVDIGSGGFGDVGALESLRGNADLAYILSMEPCGHCLIINNVNFCRESGLRTRTGSNIDCEKLRRRFSSLHFMVEVKGDLTAKKMVLALLELARQDHGALDCCVVVILSHGCQASHLQFPGAVYGTDGCPVSVEKIVNIFNGTSCPSLGGKPKLFFIQACGGEQKDHGFEVASTSPEDESPGSNPEPDATPFQEGLRTFDQLDAISSLPTPSDIFVSYSTFPGFVSWRDPKSGSWYVETLDDIFEQWAHSEDLQSLLLRVANAVSVKGIYKQMPGCFNFLRKKLFFKTSHHHHHH | active | caused cell death | 
ICE LAP-6 mt: mutant version of ICE LAP-6 with the catalytic cysteine residue (Cys286) altered to an alanine (protein, UniProt P55211 1-416, looked up, variant C287A) MDEADRRLLRRCRLRLVEELQVDQLWDALLSRELFRPHMIEDIQRAGSGSRRDQARQLIIDLETRGSQALPLFISCLEDTGQDMLASFLRTNRQAAKLSKPTLENLTPVVLRPEIRKPEVLRPETPRPVDIGSGGFGDVGALESLRGNADLAYILSMEPCGHCLIINNVNFCRESGLRTRTGSNIDCEKLRRRFSSLHFMVEVKGDLTAKKMVLALLELAQQDHGALDCCVVVILSHGCQASHLQFPGAVYGTDGCPVSVEKIVNIFNGTSCPSLGGKPKLFFIQAAGGEQKDHGFEVASTSPEDESPGSNPEPDATPFQEGLRTFDQLDAISSLPTPSDIFVSYSTFPGFVSWRDPKSGSWYVETLDDIFEQWAHSEDLQSLLLRVANAVSVKGIYKQMPGCFNFLRKKLFFKTS |  | did not induce apoptotic changes | 
Yama: ICE/Ced-3 family cysteine protease; p17 and p12 subunits derived from a 32 kDa proenzyme (protein) MENTENSVDSKSIKNLEPKIIHGSESMDSGISLDNSYKMDYPEMGLCIIINNKNFHKSTGMTSRSGTDVDAANLRETFRNLKYEVRNKNDLTREEIVELMRDVSKEDHSKRSSFVCVLLSHGEEGIIFGTNGPVDLKKITNFFRGDRCRSLTGKPKLFIIQACRGTELDCGIETDSGVDDDMACHKIPVEADFLYAYSTAPGYYSWRNSKDGSWFIQSLCAMLKQYADKLEFMHILTRVNRKVATEFESFSFDATFHAKKQIPCIVSMLTKELYFYHHHHHHH | active |  | 
